From PMC3836970

Columns and labels:
[1] = target: Gp3 of Streptomyces phage φBT1 (recombination directionality factor, excisionase) (Streptomyces phage φBT1); test: cross-linking; purified proteins, alone or mixed, incubated with or without dimethyl suberimidate (DMS), analysed by SDS-PAGE
[2] = target: Streptomyces phage φBT1 integrase (Streptomyces phage φBT1)
[3] = target: Streptomyces phage φBT1 integrase (Streptomyces phage φBT1); test: cross-linking; purified proteins, alone or mixed, incubated with or without dimethyl suberimidate (DMS), analysed by SDS-PAGE

Row | Substance | stoichiometry N [1] | quantitative in vitro recombination (blue-white screen, white colonies): excision between attL and attR with integrase and Gp3 [2] [%] | quantitative in vitro recombination (blue-white screen, white colonies): integration between attB and attP in the presence of Gp3 (more than 90% without Gp3) [2] [%] | stoichiometry N [3]
1 | Gp3 of Streptomyces phage φBT1 (recombination directionality factor, excisionase) (natural protein) | 2 | 89 | 2 | 
2 | Streptomyces phage φBT1 integrase (enzyme) |  |  |  | 2
